Source: patent US20170246255
Substitutions are numbered along the chain they refer to.

Columns and labels:
[1] = target: T1, GLP-1 (3DMA)
T1 chain: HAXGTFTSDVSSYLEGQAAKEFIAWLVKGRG

[2] = target: T2, TLE-modified GLP-1 (7-37) analog
T2 chain: T1 chain

[3] = target: T3, GLP-1 (7-37)
T3 chain: T1 chain with X3E

[4] = target: T4, GLP-1 (BM)
T4 chain: T1 chain

B1: human DPP IV (protein)
chain: SRKTYTLTDYLKNTYRLKLYSLRWISDHEYLYKQENNILVFNAEYGNSSVFLENSTFDEFGHSINDYSISPDGQFILLEYNYVKQWRHSYTASYDIYDLNKRQLITEERIPNNTQWVTWSPVGHKLAYVWNNDIYVKIEPNLPSYRITWTGKEDIIYNGITDWVYEEEVFSAYSALWWSPNGTFLAYAQFNDTEVPLIEYSFYSDESLQYPKTVRVPYPKAGAVNPTVKFFVVNTDSLSSVTNATSIQITAPASMLIGDHYLCDVTWATQERISLQWLRRIQNYSVMDICDYDESSGRWNCLVARQHIEMSTTGWVGRFRPSEPHFTLDGNSFYKIISNEEGYRHICYFQIDKKDCTFITKGTWEVIGIEALTSDYLYYISNEYKGMPGGRNLYKIQLSDYTKVTCLSCELNPERCQYYSVSFSKEAKYYQLRCSGPGLPLYTLHSSVNDKGLRVLEDNSALDKMLQNVQMPSKKLDFIILNETKFWYQMILPPHFDKSKKYPLLLDVYAGPCSQKADTVFRLNWATYLASTENIIVASFDGRGSGYQGDKIMHAINRRLGTFEVEDQIEAARQFSKMGFVDNKRIAIWGWSYGGYVTSMVLGSGSGVFKCGIAVAPVSRWEYYDSVYTERYMGLPTPEDNLDHYRNSTVMSRAENFKQVEYLLIHGTADDNVHFQQSAQISKALVDVGVDFQAMWYTDEDHGIASSTAHQHIYTHMSHFIKQCFSLP
[1]
  cleavage of the peptide by the enzyme, HPLC/MS: both GLP-1 (3DMA) and GLP-1 (BM) were resistant to cleavage by DPP IV in comparison to native GLP-1
[2]
  cleavage of the peptide by the enzyme, HPLC/MS after two hours: TLE-modified GLP-1 is resistant to degradation by DPP IV
[3]
  cleavage of the peptide by the enzyme, HPLC/MS after two hours: treatment with DPP IV resulted in a time dependent degradation of GLP-1
[4]
  cleavage of the peptide by the enzyme, HPLC/MS: both GLP-1 (3DMA) and GLP-1 (BM) were resistant to cleavage by DPP IV in comparison to native GLP-1
